Test results as given in US20250163168A1 (Pfizer, published 2025).
Square brackets hold non-standard residues; d marks the D form. Ends that are not written are not given here. * marks the point of attachment. Aib = CC(C)(N)C(=O)O; BrAc = O=C(CBr)*

T1: human GIPR (hGIPR), full length (human, UniProt P48546 22-466)
T1 sequence: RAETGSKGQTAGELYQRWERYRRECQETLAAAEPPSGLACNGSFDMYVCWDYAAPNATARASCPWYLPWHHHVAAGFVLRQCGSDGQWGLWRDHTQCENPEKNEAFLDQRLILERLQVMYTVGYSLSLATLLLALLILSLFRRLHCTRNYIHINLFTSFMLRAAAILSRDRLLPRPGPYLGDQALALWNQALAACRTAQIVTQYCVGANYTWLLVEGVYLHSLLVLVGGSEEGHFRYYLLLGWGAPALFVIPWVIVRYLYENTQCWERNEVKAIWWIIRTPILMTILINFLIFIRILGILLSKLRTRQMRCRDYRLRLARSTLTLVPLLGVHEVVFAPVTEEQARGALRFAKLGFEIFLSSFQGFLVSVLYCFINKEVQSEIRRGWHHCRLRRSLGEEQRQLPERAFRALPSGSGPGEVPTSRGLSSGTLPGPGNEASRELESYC

T2: Human GIPR ECD (GIPR extra cellular domain) (human)
T2 construct: The published benchmark structures (6dkj, 4hj0) used their own ECD constructs
T2 chain: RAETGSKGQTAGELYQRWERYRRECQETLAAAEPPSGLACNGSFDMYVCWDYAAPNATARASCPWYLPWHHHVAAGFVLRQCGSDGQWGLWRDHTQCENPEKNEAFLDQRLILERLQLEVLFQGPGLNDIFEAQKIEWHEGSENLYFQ

B1: anti-GIPR antibody GIPR-2767 (antibody, human IgG1, kappa)
heavy: EVQLVESGGGLVKPGGSLRLSCAASGFPFSSAWMSWVRQAPGKGLEWVGRIKSKADAGTTDYGAPVKGRFTISRDDSKNTLYLQMNSLKTEDTAVYYCTTEDIVGVPFKGYYQYMDAWGKGTTVTVSSASTKGPSVFPLAPSSKSTSGGTAALGCLVKDYFPEPVTVSWNSGALTSGVHTFPAVLQSSGLYSLSSVVTVPSSSLGTQTYICNVNHKPSNTKVDKKVEPKSCDKTHTCPPCPAPEAAGAPSVFLFPPKPKDTLMISRTPEVTCVVVDVSHEDPEVKFNWYVDGVEVHNAKTKPREEQYNSTYRVVSVLTVLHQDWLNGKEYKCKVSNKALPAPIEKTISKAKGQPREPQVYTLPPSREEMTKNQVSLTCLVKGFYPSDIAVEWESNGQPENNYKTTPPVLDSDGSFFLYSKLTVDKSRWQQGNVFSCSVMHEALHNHYTQKSLSLSPGK
light: not shown
notes: also called GIPR-27676; GIPR-2676

Key:
human GLP1R = human GLP1R (human, UniProt P43220 24-463); test: cell-based or functional assay
Sequence of human GLP1R (P43220 24-463): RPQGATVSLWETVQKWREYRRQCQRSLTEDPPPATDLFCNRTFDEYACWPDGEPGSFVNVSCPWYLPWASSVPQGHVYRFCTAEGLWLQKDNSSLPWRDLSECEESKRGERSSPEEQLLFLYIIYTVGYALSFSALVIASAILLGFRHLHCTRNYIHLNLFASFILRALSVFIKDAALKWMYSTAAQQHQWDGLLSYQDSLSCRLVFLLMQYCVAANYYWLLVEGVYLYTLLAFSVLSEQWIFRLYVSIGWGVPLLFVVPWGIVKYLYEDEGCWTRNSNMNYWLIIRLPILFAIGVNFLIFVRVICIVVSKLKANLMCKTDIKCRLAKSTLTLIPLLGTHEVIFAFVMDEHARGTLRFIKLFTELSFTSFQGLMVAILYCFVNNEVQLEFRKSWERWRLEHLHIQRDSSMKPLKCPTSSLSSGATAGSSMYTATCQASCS

[1] = molecular target: T1, human GIPR (hGIPR), full length; test: cell-based or functional assay
[2] = molecular target: T2, Human GIPR ECD (GIPR extra cellular …); test: SPR (Biacore 8K, 37 C); antibody captured on anti-human IgG, human GIPR ECD as analyte; 1:1 model

| Binder | cAMP assay, GLP1R agonist mode, Emax (%) (human GLP1R) | cAMP assay, GLP1R agonist mode, EC50 (pM) (human GLP1R) | Human GIPR-CHO cAMP Antagonist Activity IC50 [1] | Kd [2] | koff [2] | kon [2] |
| --- | --- | --- | --- | --- | --- | --- |
| H-H[Aib]EGTFTSDVSSYLE[Aib]QAAKEFIAWLVKGRGGGGGSGGGGSGGGGSK(BrAc) (not fully specified (C-terminus)) [SEQ ID NO 150: GLP1(7-37) [Aib8; Aib22] with GGGGS(x3)-K(BrAc) linker] | 104% | – | – | – | – | – |
| H[Aib]EGTFTSDYSSYLEEQAAKEFIAWLVKGRGGGGGSGGGGSGGGGSK(BrAc) (not fully specified (C-terminus)) [SEQ ID NO 151: GLP1(7-37) [Aib8; Tyr16; Glu22] with GGGGS(x3)-K(BrAc) linker] | 109% | 3.5 pM | – | – | – | – |
| H-H[Aib]EGTFTSDYSSYLE[Aib]QAAKEFIAWLVKGRGGGGGSGGGGSGGGGSK(BrAc) (not fully specified (C-terminus)) [SEQ ID NO 152: GLP1(7-37) [Aib8; Tyr16; Aib22] with GGGGS(x3)-K(BrAc) linker] | 107% | 2.1 pM | – | – | – | – |
| H-H[Aib]EGTFTSDVSSYLEEQAAKEFIAWLVKGGGGGGGSGGGGSGGGGSK(BrAc) (not fully specified (C-terminus)) [SEQ ID NO 153 (Benchmark): GLP1(7-37) [Aib8; Glu22; Gly36] with GGGGS(x3)-K(BrAc) linker] | 109% | 15 pM | – | – | – | – |
| B1 | – | – | 28 nM | 1.91 nM | 0.0013 s⁻¹ | 684000 M⁻¹ s⁻¹ |
